Assay results: PMC3335792, “M. tuberculosis Sliding β-Clamp Does Not Interact Directly with the NAD^+ -Dependent DNA Ligase” (PLoS ONE, 2012)

B1: M. tuberculosis sliding β-clamp (Mtbβ-clamp, Rv0002) (natural protein)
chain: MDAATTRVGLTDLTFRLLRESFADAVSWVAKNLPARPAVPVLSGVLLTGSDNGLTISGFDYEVSAEAQVGAEIVSPGSVLVSGRLLSDITRALPNKPVDVHVEGNRVALTCGNARFSLPTMPVEDYPTLPTLPEETGLLPAELFAEAISQVAIAAGRDDTLPMLTGIRVEILGETVVLAATDRFRLAVRELKWSASSPDIEAAVLVPAKTLAEAAKAGIGGSDVRLSLGTGPGVGKDGLLGISGNGKRSTTRLLDAEFPKFRQLLPTEHTAVATMDVAELIEAIKLVALVADRGAQVRMEFADGSVRLSAGADDVGRAEEDLVVDYAGEPLTIAFNPTYLTDGLSSLRSERVSFGFTTAGKPALLRPVSGDDRPVAGLNGNGPFPAVSTDYVYLLMPVRLPG
notes: also called beta clamp; Native Mtbβ-Clamp
B2: γ-subunit of the DNA clamp loader complex of M. tuberculosis (Rv3721c) (natural protein)
chain: MALYRKYRPASFAEVVGQEHVTAPLSVALDAGRINHAYLFSGPRGCGKTSSARILARSLNCAQGPTANPCGVCESCVSLAPNAPGSIDVVELDAASHGGVDDTRELRDRAFYAPVQSRYRVFIVDEAHMVTTAGFNALLKIVEEPPEHLIFIFATTEPEKVLPTIRSRTHHYPFRLLPPRTMRALLARICEQEGVVVDDAVYPLVIRAGGGSPRDTLSVLDQLLAGAADTHVTYTRALGLLGVTDVALIDDAVDALAACDAAALFGAIESVIDGGHDPRRFATDLLERFRDLIVLQSVPDAASRGVVDAPEDALDRMREQAARIGRATLTRYAEVVQAGLGEMRGATAPRLLLEVVCARLLLPSASDAESALLQRVERIETRLDMSIPAPQAVPRPSAAA
notes: γ-subunit of the DNA clamp loader (DNA polymerase III subunit gamma/tau) of M. tuberculosis, Rv3721c; also called γ-clamp loader; Mtb-γ-subunit

Experiments:
[1] = molecular target: the molecule itself; test: crystal structure; Mtbβ-Clamp, hanging drop, 9% isopropanol, 12% PEG4K, 0.1 M Na HEPES pH 7.0, 295 K; space group C222_(1); two chains in the asymmetric unit
[2] = molecular target: T1, Mtbβ-clamp labeled with OregonGreen488 maleimide (Mtbβ-clamp^OG) (M. tuberculosis, UniProt P9WNU1 1-402, OregonGreen488 maleimide label (residue not stated)); test: other fluorescence titration; OregonGreen488-labeled β-clamp (50 or 100 nM in the methods, 90 nM in the legend) titrated with the partner protein; 20 mM Tris-Cl pH 7.5, 8 mM MgCl2, 1 mM DTT, 0.2 mM EDTA, 50 mM NaCl, 0.5 mM ATP, 22°C; emission at 510 nm; apparent Kd; settings: both partners purified
T1 construct: also called Mtbβ^OG-Clamp
T1 sequence: B1 chain

Row | Binder | binding result [1] | Kd [2] [nM]
1 | B1 | binds | 
2 | B2 |  | 23.8
